Assay results as given in patent US20030059769, “High affinity nucleic acid ligands to lectins” (published 2003).

B1: PA338 (ssRNA)
RNA: GGGAGACAAGAAUAAACGCUCAAUCAAGUAAGGAGGAAGGGUCGUGACAGAAAAACGAGCAAAAAACGCGAGUUCGACAGGAGGCUCACAACAGGC
modifications: 2'-NH2 on all C and U
B2: PA328 (ssRNA)
RNA: GGGAGACAAGAAUAAACGCUCAAGCAAAAGGCGUAAAUACACCUCCGCAACUGGGAAGAAGACGCAGGGACGGUUCGACAGGAGGCUCACAACAGGC
modifications: 2'-NH2 on all C and U [2'-NH2 on all C and U; N83 in fixed region = A]
B3: PA330 (ssRNA)
RNA: GGGAGACAAGAAUAAACGCUCAAAACGCACAAAGUAAGGGACGGGAUGGAUCGCCCUAGGCUGGAAGGGAACUUCGACAGGAGGCUCACAACAGGC
modifications: 2'-NH2 on all C and U
B4: PA341 (ssRNA)
RNA: GGGAGACAAGAAUAAACGCUCAAGCCCCAAACGCAAGCGAGCAUCCGCAACAGGGAAGAAGACAGACGAAUGAUUCGACAGGAGGCUCACAACAGGC
modifications: 2'-NH2 on all C and U
B5: PA477 (ssRNA)
RNA: GGGAGACAAGAAUAAACGCUCAAGCCCCAAACGCAAGUGAGCAUCCGCAACAGGGAAGAAGACAGACGAAUGAUUCGACAGGAGGCUCACAACAGGC
modifications: 2'-NH2 on all C and U [2'-NH2 on all C and U; n18 in fixed region = G]
B6: PA337 (ssRNA)
RNA: GGGAGACAAGAAUAAACGCUCAAACAGCUACAAGUGGGACAACAGGGUACAGCGGAGAGAAACAUCCAAACAAGUUCGACAGGAGGCUCACAACAGGC
modifications: 2'-NH2 on all C and U
B7: PA351 (ssRNA)
RNA: GGGAGACAAGAAUAAACGCUCAAUGAUAGCACAGUGUAUAAGAAAACGCAACACCGCGCGCGGAAAGAGUUCGACAGGAGGCUCACAACAGGC
modifications: 2'-NH2 C and U
B8: PA336 (ssRNA)
RNA: GGGAGACAAGAAUAAACGCUCAAGAUCAUAACGAGAGGAGAGGGAGAACUACACGCGCGCGAGGAAAGAGUUCGACAGGAGGCUCACAACAGGC
modifications: 2'-NH2 C and U
B9: PA335 (ssRNA)
RNA: GGGAGACAAGAAUAAACGCUCAAUGAUAUACACGUAAGCACUGAACCAGGCUGAGAUCCAUCAGUGCCCAGGUUCGACAGGAGGCUCACAACAGGC
modifications: 2'-NH2 C and U
B10: PA354 (ssRNA)
RNA: GGGAGACAAGAAUAAACGCUCAAGCAAUGGAACGCUAGGAGGGAACAUAAGCAGGGCGAGCGGAGUCGAUAGCUUCGACAGGAGGCUCACAACAGGC
modifications: 2'-NH2 C and U
B11: PA342 (ssRNA)
RNA: GGGAGACAAGAAUAAACGCUCAACCAACGCGCACCCCGCAGCAAACGAAAUUGGGGAGACAGGUGCAAGACAGUUCGACAGGAGGCUCACAACAGGC
modifications: 2'-NH2 C and U
B12: PA320 (ssRNA)
RNA: GGGAGACAAGAAUAAACGCUCAAGAGUAUCACACAAACCGGCACGGACUAAGCAGAAGGAGGUACGGAAGAUUCGACAGGAGGCUCACAACAGGC
modifications: 2'-NH2 C and U
B13: PA447 (ssRNA)
RNA: GGGAGACAAGAAUAAACGCUCAAAACAGAACUGAUCGGCGCAGGUUGAUAAAGGGGCAGCGCGAAGAUCACAAUUCGACAGGAGGCUCACAACAGGC
modifications: 2'-NH2 C and U
B14: PA301 (ssRNA)
RNA: GGGAGACAAGAAUAAACGCUCAAACACAAAUCGGGCAGGGACUGGGUUGGGCACGGCAGGGCGCCUUCGACAGGAGGCUCACAACAGGC
modifications: 2'-NH2 C and U
B15: PA325 (ssRNA)
RNA: GGGAGACAAGAAUAAACGCUCAAACGAGAGCACCAAGGCAACAGAUGCAGAAGAAGUGUGCGCGCGCGAAAUUCGACAGGAGGCUCACAACAGGC
modifications: 2'-NH2 C and U
B16: PA327 (ssRNA)
RNA: GGGAGACAAGAAUAAACGCUCAAUAAGACAACGAACAGACAGAAGCGAAAAAGGGGCGCCGCAGCAACAACAAAUUCGACAGGAGGCUCACAACAGGC
modifications: 2'-NH2 C and U
B17: PA353 (ssRNA)
RNA: GGGAGACAAGAAUAAACGCUCAAGUACCGGGAAGGGAUGAACUGGGAUAUGGGAACGGAGGUCAGAGGCACGAUUCGACAGGAGGCUCACAACAGGC
modifications: 2'-NH2 C and U
B18: PA329 (ssRNA)
RNA: GGGAGACAAGAAUAAACGCUCAAGAAGGAUACUUAGGACUACGUGGGAUGGGAUGAAAUGGGAGAACGGGAGUUCGACAGGAGGCUCACAACAGGC
modifications: 2'-NH2 C and U
B19: PA463 (ssRNA)
RNA: GGGAGACAAGAAUAAACGCUCAAGGGAAACGGAAAGGGACAAGGCGAACAGACGAGAAGUAGACGGAGUAGGAUUCGACAGGAGGCUCACAACAGGC
modifications: 2'-NH2 C and U
B20: PA352 (ssRNA)
RNA: GGGAGACAAGAAUAAACGCUCAAGAUCAUCGCAGUAUCGGAAUCGACCCUCAGUGGGUGACAUGCGGACAAGUUCGACAGGAGGCUCACAACAGGC
modifications: 2'-NH2 C and U
B21: PA318 (ssRNA)
RNA: GGGAGACAGAAUAAACGCUCAAAGACCAAGGGACAGCAGCGGGGAAAAACAGAUCACAGCUGUAAGAGGGCUUCGACAGGAGGCUCACAACAGGC
modifications: 2'-NH2 C and U
B22: PA315 (ssRNA)
RNA: GGGAGACAAGAAUAAACGCUCAAUAACAAAGCAGCAAAGUACCAGAGGAGAGUUGGCAGGGUUUAGGCAGCUUCGACAGGAGGCUCACAACAGGC
modifications: 2'-NH2 C and U
B23: PA319 (ssRNA)
RNA: GGGAGACAAGAAUAAACGCUCAAAGUCGGGGAUAGAAACACACUAAGAAGUGCAUCAGGUAGGAGAUAAUUCGACAGGAGGCUCACAACAGGC
modifications: 2'-NH2 C and U [all C and U 2'-NH2]
B24: PF411 (ssRNA)
RNA: GGGAGACAAGAAUAAACGCUCAACAACCCAACCAUCUAGAGCUUCGAACCAUGGUAUACAAGGGAACACAAAAUUCGCGGAGGCUCCAACAGGCGGC
modifications: 2'-F C and U
B25: PF380 (ssRNA)
RNA: GGGAGACAAGAAUAAACGCUCAACGAGCAAAAGUACUCACGGGACCAGGAGAUCAGCAACACGCGAGACGAAAUUCGACAGGAGGCUCACAACAGGC
modifications: 2'-F C and U
B26: PF381 (ssRNA)
RNA: GGGAGACAAGAAUAAACGCUCAAAGGAUCACACAAACAUCGGUCAAUAAAUAAGUAUUGAUAGCGGGGAUAUUCGACAGGAGGCUCACAACAGGC
modifications: 2'-F C and U
B27: PF422 (ssRNA)
RNA: GGGAGACAAGAAUAAACGCUCAACGUCAAGCCAGAAUCCGGAACACGCGAGAAAACAAAUCAACGACCAAUCGAUUCGACAGGAGGCUCACAAAGGC
modifications: 2'-F C and U
B28: PA341 (ssRNA)
RNA: GGGAGACAAGAAUAAACGCUCAAGCCCCAAACGCAAGCGAGCAUCCGCAACAGGGAAGAAGACAGACGAAUGAUUCGACAGGAGGCUCACAACAGGC
modifications: 2'-NH2 C and U

Molecular target: T1, P-selectin (PS-Rg) (Homo sapiens, UniProt P16109 P16109:42-321)
Assay: filter; 37 C
Conditions: tags: human IgG1 Fc fusion; chain copies: dimer; label: 32P

T1 sequence (P16109 42-321, one chain of several): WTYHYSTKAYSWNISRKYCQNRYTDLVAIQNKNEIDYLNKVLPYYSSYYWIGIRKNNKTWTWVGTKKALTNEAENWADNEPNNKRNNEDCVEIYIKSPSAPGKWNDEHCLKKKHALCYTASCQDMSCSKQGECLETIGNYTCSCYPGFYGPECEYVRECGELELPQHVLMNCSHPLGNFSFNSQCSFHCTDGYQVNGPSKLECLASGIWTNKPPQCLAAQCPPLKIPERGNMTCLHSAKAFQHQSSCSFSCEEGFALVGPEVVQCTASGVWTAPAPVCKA

Row | Binder | Kd [nM]
1 | B1 | 57
2 | B2 | 3
3 | B3 | 0.237
4 | B4 | 0.44
5 | B5 | 0.57
6 | B6 | 4.5

Same assay, conditions: tags: human IgG Fc fusion; chain copies: 2 (stated dimer)

Row | Binder | Kd [nM]
7 | B7 | 2
8 | B8 | 15
9 | B9 | 10.5
10 | B10 | 5
11 | B11 | 4
12 | B12 | 4.5
13 | B13 | 50
14 | B14 | 2.5
15 | B15 | > 10
16 | B16 | 13.5
17 | B17 | 9
18 | B18 | 4
19 | B19 | 8
20 | B20 | 6
21 | B21 | 2
22 | B22 | 5
23 | B23 | 11

Molecular target: T1, P-selectin (PS-Rg)
Assay: filter; HSMC
Conditions: tags: human IgG1 Fc fusion; chain copies: dimer

Row | Binder | Kd [nM]
24 | CUCAACGAGCCAGGACUACGAUCAGCAAACGCGAG (ssRNA, 2'-F on all C and U) | 0.22
25 | GAAUCCGGAACACGCGAGAAAACAAAUCAACGACCAAUCGAUUCG (ssRNA, 2'-F on all C and U) | 1
26 | CUCAACGAAUCAGUAAACAUAACACCAUGAAACAUAAAUAGCACGCGAG (ssRNA, 2'-F on all C and U) | 0.056

Molecular target: T1, P-selectin (PS-Rg)
Assay: inhibition; sialyl-LewisX
Conditions: tags: human IgG Fc fusion; chain copies: 2 (stated dimer)
Protocol: The ability of evolved RNA pools or cloned ligands to inhibit the binding of PS-Rg to sialyl-Lewis^x was tested in competitive ELISA assays (C. Foxall et al., 1992, supra). For these assays, the wells of Corning (25801) 96 well microtiter plates were coated with 100 ng of a sialyl-Lewis^x/BSA conjugate, air dried overnight, washed with 300 μl of PBS(−) and then blocked with 1% BSA in HSMC for 60 min at room temperature. RNA ligands were incubated with PS-Rg in HSMC/1% BSA at room temperature for 15 min. After removal of the blocking solution, 50 μl of PS-Rg (10 nM) or a PS-Rg (10 nM)/RNA ligand mix was added to the coated, blocked wells and incubated at room temperature for 60 minutes. The binding solution was removed, wells were washed with 300 μl of PBS(−) and then probed with HRP conjugated anti-human IgG, at room temperature to quantitate PS-Rg binding. After a 30 minute incubation at room temperature in the dark with OPD peroxidase substrate (Sigma P9187), the extent of PS-Rg binding and percent inhibition was determined from the OD₄₅₀.

Row | Binder | IC50 [nM]
27 | CUCAACGAGCCAGGACUACGAUCAGCAAACGCGAG (ssRNA, 2'-F C and U) | 4
28 | B24 | 2
29 | CUCAACGCACCAGGAACAACGAGAACCAUCAGUAAACGCGAG (ssRNA, 2'-F C and U) [PF387s1] | 2
30 | CUCAACGCACCAGGAACAACAAGAACCAUCAGUAAGCGCGAG (ssRNA, 2'-F C and U) [PF383s1] | 25
31 | CUCAACGAGCCAGGAACAUCGACGUCAGCAAACGCGAG (ssRNA, 2'-F C and U) [PF377s1] | 2
32 | CUCAACGAGCCAGGAACAUCGACGUCAGCAAACGCGAG (ssRNA, 2'-F C and U, 5' NH2) [PF377s1-5'NH2] | 2
33 | CUCAACGAGCCAGGAACAUCGACGUCAGCAAACGCGAG (ssRNA, 2'-F C and U; 2'-OMe G 7,9,14 and A 8,15,18,27,31) [PF377M5] | 2
34 | B25 | 4
35 | B26 | 1
36 | B27 | 3
37 | GAAUCCGGAACACGCGAGAAAACAAAUCAACGACCAAUCGAUUCG (ssRNA, 2'-F C and U) | 8
38 | B28 | 3
39 | CUCAACGAAUCAGUAAACAUAACACCAUGAAACAUAAAUAGCACGCGAG (ssRNA, 2'-F C and U) | 3
